Results reported in article PMC10095184.

What was measured:
[1] = tested on: NS5-6xHis AHSV-4 (African horse sickness virus 4); assay: pull-down RT-qPCR
[2] = tested on: NS5-6xHis BTV-1 (Bluetongue virus 1); assay: pull-down RT-qPCR

For BTV-1 Seg-1 mRNA, the binding signal (Ct (ctrl 14.81)) [1] was 11.3, the binding signal (Ct (ctrl 18.09)) [1] was 11.6 and the binding signal (Ct (ctrl 14.81)) [2] was 10.8. It also gave a binding signal (Ct (ctrl 18.09)) [2] of 10.9.

For BTV-1 Seg-7 mRNA, the binding signal (Ct (ctrl 16.17)) [1] was 11.8, the binding signal (Ct (ctrl 16.39)) [1] was 10.9 and the binding signal (Ct (ctrl 16.17)) [2] was 11.1. For the same substance, the binding signal (Ct (ctrl 16.39)) [2] was 10.2.

With BTV-1 Seg-3 mRNA the binding signal (Ct (ctrl 19.32)) [1] was 11.9, the binding signal (Ct (ctrl 19.87)) [1] was 11.8 and the binding signal (Ct (ctrl 19.32)) [2] was 11.2. For the same substance, the binding signal (Ct (ctrl 19.87)) [2] was 11.5.
